Target: amyloid β peptide 1-40 (human)

B1: Recombinant Human Neprilysin (R&D Systems) (protein)
chain: YDDGICKSSDCIKSAARLIQNMDATTEPCTDFFKYACGGWLKRNVIPETSSRYGNFDILRDELEVVLKDVLQEPKTEDIVAVQKAKALYRSCINESAIDSRGGEPLLKLLPDIYGWPVATENWEQKYGASWTAEKAIAQLNSKYGKKVLINLFVGTDDKNSVNHVIHIDQPRLGLPSRDYYECTGIYKEACTAYVDFMISVARLIRQEERLPIDENQLALEMNKVMELEKEIANATAKPEDRNDPMLLYNKMTLAQIQNNFSLEINGKPFSWLNFTNEIMSTVNISITNEEDVVVYAPEYLTKLKPILTKYSARDLQNLMSWRFIMDLVSSLSRTYKESRNAFRKALYGTTSETATWRRCANYVNGNMENAVGRLYVEAAFAGESKHVVEDLIAQIREVFIQTLDDLTWMDAETKKRAEEKALAIKERIGYPDDIVSNDNKLNNEYLELNYKEDEYFENIIQNLKFSQSKQLKKLREKVDKDEWISGAAVVNAFYSSGRNQIVFPAGILQPPFFSAQQSNSLNYGGIGMVIGHEITHGFDDNGRNFNKDGDLVDWWTQQSASNFKEQSQCMVYQYGNFSWDLAGGQHLNGINTLGENIADNGGLGQAYRAYQNYIKKNGEEKLLPGLDLNHKQLFFLNFAQVWCGTYRPEYAVNSIKTDVHSPGNFRIIGTLQNSAEFSEAFHCRKNSYMNPEKKCRVW
B1 was tested, and the “Amyloid β 1-40 peptide degradation (remaining peptide by Gyrolab immunoassay), enzyme 2.4 µg/ml, 300 nM peptide, 2.5 h at 37 °C in buffer” value was “degraded 64% of Amyloid β 1-40 peptide (300 nM)” and the “degradation of Aβ40 in human plasma compared to vehicle (ELISA), 5 µg/ml, 4 h at 37 °C” value was “degraded Aβ40 with 33% and 70%, respectively”.
